The chains are these.
B1: anti-HER2 Fab HER20010 (Fab, V domains shown)
VH: QVQLVQSGAEVKKPGESLKISCKGSGYSFTSYWIAWVRQMPGKGLEYMGLIYPGDSDTKYSPSFQGQVTISVDKSVSTAYLQWSSLKPSDSAVYFCARHDVAYCSSSRCLDWPEYFQHWGQGTLVTVSS
VL: QSVLTQPPSVSAAPGQKVTISCSGSSSNIGNNYVSWYQQLPGTAPKLLIYGHTNRPAGVPDRFSGSKSGTSASLAISGFRSEDEADYYCASWDYTLSGWVFGGGTKLTVL
B2: anti-HER2 Fab HER20015 (Fab, V domains shown)
VH: B1 VH with A102G, S105D, S106T, S107P, R108T, L110D, D111K
VL: B1 VL
B3: anti-HER2 Fab HER20011 (Fab, V domains shown)
VH: B1 VH with A102G, Y103L, R108N, L110A, D111K
VL: B1 VL
B4: anti-HER2 Fab HER20007 (Fab, V domains shown)
VH: B1 VH with A102G, S105M, R108N, L110A, D111K
VL: B1 VL
B5: anti-HER2 Fab HER20009 (Fab, V domains shown)
VH: B1 VH with D111E
VL: B1 VL
B6: anti-HER2 Fab HER20008 (Fab, V domains shown)
VH: B1 VH with S105D, S107D, L110A, D111K
VL: B1 VL
B7: HER20010 (peptide)
chain: HDVAYCSSSRCLDWPEYFQH
B8: HER20009 (peptide)
chain: HDVAYCSSSRCLEWPEYFQH
B9: HER20008 (peptide)
chain: HDVAYCDSDRCAKWPEYFQH
B10: HER20003 (peptide)
chain: HDVAYCSSSRCLTWPEYFQH
B11: HER20004 (peptide)
chain: HDVGQCDSSNCAKWPEYFQH
B12: HER20015 (peptide)
chain: HDVGYCDTPTCDKWPEYFQH
B13: HER20021 (peptide)
chain: HDTGYCDTPTCAKWPEYFQH
B14: HER20012 (peptide)
chain: HDVGYCSSHRCETWPEYFQH
B15: HER20023 (peptide)
chain: HDVGYCDTESCEKWPEYFQH
B16: HER20014 (peptide)
chain: HDVAYCDDPTCAYWPEYFQH
B17: HER20022 (peptide)
chain: HDVGYCDTPTCATWPEQFDH
B18: HER20005 (peptide)
chain: HDVAYCDTPTCAKWPEYFQH
B19: HER20017 (peptide)
chain: HDVGQCDSSNCAAWPEYFQH
B20: HER20018 (peptide)
chain: HDVGYCSESACQQWPEYFQH
B21: HER20002 (peptide)
chain: HDVGYCSSSNCAKWPEYFQH
B22: HER20007 (peptide)
chain: HDVGYCMSSNCAKWPEYFQH
B23: HER20016 (peptide)
chain: HDVGPCDTSTCAKWPEYFQH
B24: HER20020 (peptide)
chain: HDVGYCDTPTCDKWPEYFTH
B25: HER20019 (peptide)
chain: HDVGQCDSSNCATWPEYFQH
B26: HER20006 (peptide)
chain: HDVGWCTSSNCAKWPEYFQH
B27: HER20026 (peptide)
chain: HDVGYCDSSMCQMWPEYFQH
B28: anti-HER2 Fab G98A (Fab, V domains shown)
VH: B1 VH with R108N, L110A, D111K
VL: B1 VL
B29: anti-HEL nanobody M5, ribosome-displayed on the flow cell (VHH)
VHH: QVQLQESGGGLVQAGGSLRLSCAASGSIFYYTDMGWYRQAPGKEREFVASIGYGGITYYADSVKGRFTISRDNAKNTVYLQMNSLKPEDTAVYYCAVQRSFESYGYWGHVYWGQGTQVTVSS
B30: anti-HEL nanobody M6, ribosome-displayed on the flow cell (VHH)
VHH: B29 VHH with F29S, Y30R, Y31D, T32P, G52S, Y53G, G55T, I56T
B31: anti-HEL nanobody M15, ribosome-displayed on the flow cell (VHH)
VHH: QVQLQESGGGLVQAGGSLRLSCAASGTISSQKLMGWYRQAPGKEREFVAAINDGATTNYADSVKGRFTISRDNAKNTVYLQMNSLKPEDTAVYYCAAYYDVRGYYWGTFGYWGQGTQVTVSS
B32: anti-HEL nanobody C2 (VHH)
VHH: QVQLQESGGGLVQAGGSLRLSCAASGNISADASMGWYRQAPGKEREFVAAIARGATTYYADSVKGRFTISRDNAKNTVYLQMNSLKPEDTAVYYCAVDQYDVTKRYIGHIYWGQGTQVTVSS
B33: anti-HEL nanobody C1 (VHH)
VHH: QVQLQESGGGLVQAGGSLRLSCAASGSIFWAGYMGWYRQAPGKEREFVAAIDYGANTYYADSVKGRFTISRDNAKNTVYLQMNSLKPEDTAVYYCAVDRQPYYRRDNSHLYWGQGTQVTVSS
B34: anti-HER2 scFv G98A, ribosome-displayed on the flow cell (scFv, V domains shown)
VH: B1 VH with R108N, L110A, D111K
VL: B1 VL
B35: anti-HER2 Fab HER20006 (Fab, V domains shown)
VH: B1 VH with A102G, Y103W, S105T, R108N, L110A, D111K
VL: B1 VL
B36: HER20024 (peptide)
chain: HDVGQCDSSNCETWPEYFQH
B37: HER20025 (peptide)
chain: HDVGYCDTPTCNKWPEYFQH
B38: HER20011 (peptide)
chain: HDVGLCSSSNCAKWPEYFQH
B39: HER20013 (peptide)
chain: HDVGYCSTSRCLTWPEYFQH

Substitutions are numbered along the chain they refer to. Names and notes keep the numbering of the source.

One assay addresses T1, human epidermal growth factor receptor 2 (HER2), biotinylated (human, UniProt P04626 23-652, biotin). The assay can be described thus: BLI.
Take B1: the Kd is 1.06 nM.

B2: the Kd stood at 0.2 nM.

In turn, B3 yielded a Kd of 5.25 nM.

B4 yielded a Kd of 2.08 nM.

Molecule B5 had a Kd of 1.04 nM.

B6 gave a Kd of 2.68 nM.

The target of a further assay is T2, HER2 extracellular domain (Homo sapiens, UniProt P04626). The assay can be described thus: Octet. Background: In BLI a coated tip is dipped into the sample, and binding shifts an interference pattern.
Molecule B7 came in with a Kd of 1.06 nM.

Molecule B8 had a Kd of 1.04 nM.

B9 came in with a Kd of 2.68 nM.

As to B10, the Kd came out at 2.88 nM.

B11 had a Kd of 3.44 nM.

Take B12: the Kd stood at 0.2 nM.

B13: the Kd came out at 0.215 nM.

B14 had a Kd of 0.591 nM.

Consider B15, for which the Kd was found to be 0.578 nM.

The molecule B16 came in with a Kd of 0.996 nM.

With B17, the Kd turned out to be 0.183 nM.

The molecule B18 returned a Kd of 1.86 nM.

On to B19, for which the Kd is 1.46 nM.

With B20, the Kd turned out to be 2.26 nM.

The molecule B21 showed a Kd of 1.65 nM.

As to B22, the Kd turned out to be 2.08 nM.

The molecule B23 returned a Kd of 1.41 nM.

B24 registered a Kd of 0.294 nM.

B25 displayed a Kd of 0.79 nM.

As for B26, the Kd worked out at 0.85 nM.

Molecule B27 yielded a Kd of 0.465 nM.

For a further assay, the target named is T1, human epidermal growth factor receptor …. In words: SPR. In general terms: Surface plasmon resonance follows binding to a sensor surface in real time, without labels.
For the molecule B28, the Kd was 320 nM.

The target in another assay is T3, hen egg lysozyme (HEL), biotinylated (hen, UniProt P00698 19-147, biotin). In words: deep screening KDapp.
T3 sequence (P00698 19-147): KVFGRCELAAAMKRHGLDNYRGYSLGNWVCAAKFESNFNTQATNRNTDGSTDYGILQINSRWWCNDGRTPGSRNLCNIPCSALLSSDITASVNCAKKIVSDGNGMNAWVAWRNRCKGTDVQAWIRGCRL
B29 showed a Kd of 106 nM.

Molecule B30 gave a Kd of 63.6 nM.

The molecule B31 returned a Kd of 64.4 nM.

B32 returned a Kd of 11900 nM.

In turn, B33 showed a Kd of 11900 nM.

Another assay concerns the target T1, human epidermal growth factor receptor ….
Assay: not given
B34 gave a Kd of 24 nM.

The target in the next assay is T3, hen egg lysozyme (HEL), biotinylated. In words: BLI.
B32 had a Kd of 59.8 nM.

For B33, the Kd came out at 67.4 nM.

The target of a further assay is T1, human epidermal growth factor receptor …. In words: SPR. The source holds these as a separate data set.
With B34, the Kd came out at 320 nM.

For a further assay the target is unchanged. The assay can be described thus: BLI. This is another data set of the same source.
On to B35, for which the Kd turned out to be 0.85 nM.

The next assay addresses T2, HER2 extracellular domain. The assay can be described thus: flow.
Turning to B7, the “apparent Kd (screen)” value was 17.7 nM.

B8: the “apparent Kd (screen)” value was 11.2 nM.

In the case of B9, the “apparent Kd (screen)” value stood at 44.5 nM.

In the case of B12, the “apparent Kd (screen)” value was 31 nM.

Take B36: the “apparent Kd (screen)” value was 17.9 nM.

B13: the “apparent Kd (screen)” value amounted to 17.7 nM.

Take B14: the “apparent Kd (screen)” value worked out at 74.2 nM.

On to B15, for which the “apparent Kd (screen)” value was 31.6 nM.

As for B16, the “apparent Kd (screen)” value amounted to 65.9 nM.

As to B17, the “apparent Kd (screen)” value came out at 14.8 nM.

In the case of B37, the “apparent Kd (screen)” value came to 8.78 nM.

For B19, the “apparent Kd (screen)” value was 1350 nM.

For B20, the “apparent Kd (screen)” value came to 24.4 nM.

Regarding B21, the “apparent Kd (screen)” value is 19.4 nM.

In the case of B22, the “apparent Kd (screen)” value was determined as 41.1 nM.

On to B23, for which the “apparent Kd (screen)” value stood at 106 nM.

For B38, the “apparent Kd (screen)” value was 40.6 nM.

For B24, the “apparent Kd (screen)” value is 14.3 nM.

Take B25: the “apparent Kd (screen)” value came out at 19.6 nM.

With B26, the “apparent Kd (screen)” value is 151 nM.

In the case of B39, the “apparent Kd (screen)” value worked out at 10 nM.

As for B27, the “apparent Kd (screen)” value was determined as 4.78 nM.

(Values after paper PMC10963267 (2023).)
